Tests used:
[1] = biological target: ^GSTCAND1 from insect cells (UniProt Q86VP6); assay: pull-down
[2] = biological target: ^GSTCAND1 from bacterial cells (UniProt Q86VP6); assay: pull-down
[3] = biological target: CUL2^AMCA•RBX1 preassembled with VBC (UniProt Q13617); assay: FRET or BRET

Chain of RBX1•^StrepIICUL2^FL (Q13617 whole entry): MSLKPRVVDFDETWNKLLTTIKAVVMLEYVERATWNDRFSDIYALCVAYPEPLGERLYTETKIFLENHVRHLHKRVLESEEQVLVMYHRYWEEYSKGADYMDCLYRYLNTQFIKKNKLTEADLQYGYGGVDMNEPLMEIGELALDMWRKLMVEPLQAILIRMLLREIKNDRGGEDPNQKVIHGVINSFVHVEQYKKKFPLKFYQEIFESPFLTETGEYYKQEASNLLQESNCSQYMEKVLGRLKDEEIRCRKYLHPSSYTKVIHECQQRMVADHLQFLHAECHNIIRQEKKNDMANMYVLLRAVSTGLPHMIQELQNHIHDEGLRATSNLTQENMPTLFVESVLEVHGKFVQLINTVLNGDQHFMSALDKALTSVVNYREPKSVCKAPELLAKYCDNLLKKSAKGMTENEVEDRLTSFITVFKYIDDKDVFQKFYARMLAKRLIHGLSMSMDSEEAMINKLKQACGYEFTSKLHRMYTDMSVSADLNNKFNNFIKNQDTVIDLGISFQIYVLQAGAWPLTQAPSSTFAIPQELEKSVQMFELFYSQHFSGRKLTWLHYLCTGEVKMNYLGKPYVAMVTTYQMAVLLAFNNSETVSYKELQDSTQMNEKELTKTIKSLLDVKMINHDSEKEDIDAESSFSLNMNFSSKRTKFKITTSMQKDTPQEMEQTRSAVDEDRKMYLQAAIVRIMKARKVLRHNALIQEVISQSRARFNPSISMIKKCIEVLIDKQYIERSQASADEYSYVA
Chain of RBX1•^StrepIICUL2^FL (P62877 whole entry): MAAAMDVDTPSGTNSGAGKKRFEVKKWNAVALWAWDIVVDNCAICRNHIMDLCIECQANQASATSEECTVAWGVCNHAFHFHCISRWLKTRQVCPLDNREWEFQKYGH
Chain of ^GSTCAND1 from insect cells (Q86VP6 whole entry): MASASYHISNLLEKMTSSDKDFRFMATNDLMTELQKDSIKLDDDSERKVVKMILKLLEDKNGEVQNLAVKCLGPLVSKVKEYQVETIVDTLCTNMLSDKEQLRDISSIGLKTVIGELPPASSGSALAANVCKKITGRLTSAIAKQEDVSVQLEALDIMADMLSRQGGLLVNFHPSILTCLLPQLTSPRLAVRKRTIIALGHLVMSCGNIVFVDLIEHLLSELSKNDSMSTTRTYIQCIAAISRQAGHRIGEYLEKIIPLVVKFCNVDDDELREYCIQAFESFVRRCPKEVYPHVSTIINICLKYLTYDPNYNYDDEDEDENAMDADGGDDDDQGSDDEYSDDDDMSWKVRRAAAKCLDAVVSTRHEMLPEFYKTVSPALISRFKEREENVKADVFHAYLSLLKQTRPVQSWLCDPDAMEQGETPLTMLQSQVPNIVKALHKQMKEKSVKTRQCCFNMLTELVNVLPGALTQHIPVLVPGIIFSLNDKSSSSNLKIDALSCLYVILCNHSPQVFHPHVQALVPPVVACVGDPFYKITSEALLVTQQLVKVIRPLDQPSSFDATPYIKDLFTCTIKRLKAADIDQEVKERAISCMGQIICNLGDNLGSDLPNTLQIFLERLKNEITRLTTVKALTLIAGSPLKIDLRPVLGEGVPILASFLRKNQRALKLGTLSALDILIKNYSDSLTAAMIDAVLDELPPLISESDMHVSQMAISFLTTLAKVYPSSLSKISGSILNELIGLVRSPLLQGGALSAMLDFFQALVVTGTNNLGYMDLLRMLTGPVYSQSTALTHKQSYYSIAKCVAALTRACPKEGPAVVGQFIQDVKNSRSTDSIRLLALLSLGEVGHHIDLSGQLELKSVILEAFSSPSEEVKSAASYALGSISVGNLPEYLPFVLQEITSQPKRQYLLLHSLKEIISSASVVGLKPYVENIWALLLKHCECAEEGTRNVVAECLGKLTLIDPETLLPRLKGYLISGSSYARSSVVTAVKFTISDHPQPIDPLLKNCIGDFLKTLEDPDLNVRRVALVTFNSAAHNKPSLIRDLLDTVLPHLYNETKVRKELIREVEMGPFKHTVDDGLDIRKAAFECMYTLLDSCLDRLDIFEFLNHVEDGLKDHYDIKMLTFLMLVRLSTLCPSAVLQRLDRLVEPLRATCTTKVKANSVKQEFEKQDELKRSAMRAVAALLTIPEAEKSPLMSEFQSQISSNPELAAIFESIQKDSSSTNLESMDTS
Chain of ^GSTCAND1 from bacterial cells (Q86VP6 whole entry): as above
Chain of ^FlAsHCAND1 from insect cells (Q86VP6 whole entry): as above

| t1/2 of dissociation [1] | t1/2 of dissociation [2] | kon [3] | Substance |
| --- | --- | --- | --- |
| 16 min | 3.5 min | – | RBX1•^StrepIICUL2^FL (from UniProt Q13617 1-745; P62877 1-108) (complex) |
| – | – | 9.8e+07 M⁻¹ s⁻¹ | ^FlAsHCAND1 from insect cells (from UniProt Q86VP6 1-1230) (natural protein) |
